No end group written: not given here.
Columns and labels:
Test in all cases: Kinase Profiling Assay
Type in all cases: biochemical
Details in all cases: peptide 100 μM
[1] = target: T1, PDK1(h) (Homo sapiens, UniProt O15530)
T1 sequence (O15530 1-556): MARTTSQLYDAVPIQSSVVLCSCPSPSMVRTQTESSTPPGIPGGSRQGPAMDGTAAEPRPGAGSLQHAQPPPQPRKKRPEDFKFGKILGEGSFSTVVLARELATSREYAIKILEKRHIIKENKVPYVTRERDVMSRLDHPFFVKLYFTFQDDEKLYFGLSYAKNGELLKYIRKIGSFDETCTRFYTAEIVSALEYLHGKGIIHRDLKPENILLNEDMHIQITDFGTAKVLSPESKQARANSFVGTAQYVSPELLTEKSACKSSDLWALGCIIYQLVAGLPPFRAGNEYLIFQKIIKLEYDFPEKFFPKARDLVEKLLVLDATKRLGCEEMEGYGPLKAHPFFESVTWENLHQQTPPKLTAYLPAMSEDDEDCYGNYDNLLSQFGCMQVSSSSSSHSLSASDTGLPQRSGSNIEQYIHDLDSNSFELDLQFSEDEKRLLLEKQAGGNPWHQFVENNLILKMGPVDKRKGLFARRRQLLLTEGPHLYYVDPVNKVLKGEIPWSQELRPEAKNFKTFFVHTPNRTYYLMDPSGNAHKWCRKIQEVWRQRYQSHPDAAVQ
How it was run: (§1)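 Kinase inhibition by MK2 inhibitory peptides was profiled radiometrically, with substrate phosphorylation from labeled ATP read by scintillation after capture on a charged filter. Values are relative to 100% activity and measured in duplicate.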

[2] = target: T2, Mer(h) (Homo sapiens, UniProt Q12866)
T2 construct: purchased Millipore
T2 sequence (Q12866 21-999): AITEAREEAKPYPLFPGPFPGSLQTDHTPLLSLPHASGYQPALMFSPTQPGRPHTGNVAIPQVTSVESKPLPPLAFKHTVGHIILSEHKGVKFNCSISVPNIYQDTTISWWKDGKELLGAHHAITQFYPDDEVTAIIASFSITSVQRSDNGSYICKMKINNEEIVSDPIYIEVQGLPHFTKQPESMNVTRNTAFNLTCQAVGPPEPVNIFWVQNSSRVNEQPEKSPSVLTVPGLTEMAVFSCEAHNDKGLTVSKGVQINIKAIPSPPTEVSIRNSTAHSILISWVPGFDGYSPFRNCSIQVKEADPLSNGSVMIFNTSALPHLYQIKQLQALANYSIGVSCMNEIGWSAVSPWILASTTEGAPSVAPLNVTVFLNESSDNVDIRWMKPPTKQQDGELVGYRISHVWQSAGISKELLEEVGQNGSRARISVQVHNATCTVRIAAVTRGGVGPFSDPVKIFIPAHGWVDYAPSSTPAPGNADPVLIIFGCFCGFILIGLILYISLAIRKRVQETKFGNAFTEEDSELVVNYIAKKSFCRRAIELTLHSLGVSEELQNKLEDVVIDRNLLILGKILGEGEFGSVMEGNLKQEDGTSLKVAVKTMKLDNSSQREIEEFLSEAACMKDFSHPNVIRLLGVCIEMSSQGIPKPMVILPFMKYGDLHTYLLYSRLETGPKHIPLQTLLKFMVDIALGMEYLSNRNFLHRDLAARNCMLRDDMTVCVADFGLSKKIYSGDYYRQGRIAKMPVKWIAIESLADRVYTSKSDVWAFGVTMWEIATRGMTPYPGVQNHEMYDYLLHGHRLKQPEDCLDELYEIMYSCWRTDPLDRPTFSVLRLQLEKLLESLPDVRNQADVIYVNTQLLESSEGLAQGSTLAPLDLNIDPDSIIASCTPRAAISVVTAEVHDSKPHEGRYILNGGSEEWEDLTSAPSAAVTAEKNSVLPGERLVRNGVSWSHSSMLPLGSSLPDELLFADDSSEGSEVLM
How it was run: as §1

[3] = target: EGFR(h) (Homo sapiens, UniProt P00533)
How it was run: as §1

[4] = target: T3, MAPKAP-K3(h) (Homo sapiens, UniProt Q16644)
T3 construct: purchased Millipore
How it was run: as §1

[5] = target: T4, Lck(h) (Homo sapiens, UniProt P06239)
T4 construct: purchased Millipore
How it was run: as §1

[6] = target: PKCβI(h) (Homo sapiens, UniProt P05771)
How it was run: as §1

[7] = target: PASK(h) (Homo sapiens, UniProt Q96RG2)
How it was run: as §1

[8] = target: CDK5/p35(h) (Homo sapiens, UniProt Q00535)
How it was run: as §1

[9] = target: T5, Mnk2(h) (Homo sapiens, UniProt Q9HBH9)
T5 construct: purchased Millipore
How it was run: as §1

[10] = target: CHK2(R145W)(h) (Homo sapiens, UniProt O96017, R145W)
How it was run: as §1

[11] = target: T6, LOK(h) (Homo sapiens, UniProt O94804)
T6 construct: purchased Millipore
How it was run: as §1

[12] = target: ALK(h) (Homo sapiens, UniProt Q9UM73)
How it was run: as §1

[13] = target: EphA2(h) (Homo sapiens, UniProt P29317)
How it was run: as §1

[14] = target: T7, Src(1-530)(h) (Homo sapiens, UniProt P12931)
T7 construct: Src(1-530)(h); purchased Millipore
How it was run: as §1

[15] = target: CHK2(I157T)(h) (Homo sapiens, UniProt O96017, I157T)
How it was run: as §1

[16] = target: T8, JNK2α2(h) (Homo sapiens, UniProt P45984)
T8 construct: purchased Millipore
How it was run: as §1

[17] = target: PKCγ(h) (Homo sapiens, UniProt P05129)
How it was run: as §1

[18] = target: PKA(h) (Homo sapiens, UniProt P17612)
How it was run: as §1

CDK5/p35(h), sequence (Q00535 whole entry): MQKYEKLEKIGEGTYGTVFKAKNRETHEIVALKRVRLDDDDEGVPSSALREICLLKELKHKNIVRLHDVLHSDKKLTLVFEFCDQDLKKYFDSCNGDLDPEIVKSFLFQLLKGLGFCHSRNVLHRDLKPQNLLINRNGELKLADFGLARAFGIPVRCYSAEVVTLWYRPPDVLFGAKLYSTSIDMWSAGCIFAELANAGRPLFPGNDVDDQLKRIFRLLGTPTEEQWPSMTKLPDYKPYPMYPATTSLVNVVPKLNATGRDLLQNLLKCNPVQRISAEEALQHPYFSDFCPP
CDK5/p35(h), sequence (Q15078 whole entry partner): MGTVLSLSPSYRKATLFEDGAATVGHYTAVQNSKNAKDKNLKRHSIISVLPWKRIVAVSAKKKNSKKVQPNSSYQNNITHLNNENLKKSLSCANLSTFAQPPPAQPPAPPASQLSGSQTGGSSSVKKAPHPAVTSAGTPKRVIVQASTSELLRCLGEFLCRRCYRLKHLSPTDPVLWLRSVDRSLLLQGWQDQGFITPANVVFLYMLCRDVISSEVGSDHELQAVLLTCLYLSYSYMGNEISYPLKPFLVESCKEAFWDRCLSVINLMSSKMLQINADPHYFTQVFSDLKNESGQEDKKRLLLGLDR
CHK2(I157T)(h), sequence (O96017 whole entry I157T): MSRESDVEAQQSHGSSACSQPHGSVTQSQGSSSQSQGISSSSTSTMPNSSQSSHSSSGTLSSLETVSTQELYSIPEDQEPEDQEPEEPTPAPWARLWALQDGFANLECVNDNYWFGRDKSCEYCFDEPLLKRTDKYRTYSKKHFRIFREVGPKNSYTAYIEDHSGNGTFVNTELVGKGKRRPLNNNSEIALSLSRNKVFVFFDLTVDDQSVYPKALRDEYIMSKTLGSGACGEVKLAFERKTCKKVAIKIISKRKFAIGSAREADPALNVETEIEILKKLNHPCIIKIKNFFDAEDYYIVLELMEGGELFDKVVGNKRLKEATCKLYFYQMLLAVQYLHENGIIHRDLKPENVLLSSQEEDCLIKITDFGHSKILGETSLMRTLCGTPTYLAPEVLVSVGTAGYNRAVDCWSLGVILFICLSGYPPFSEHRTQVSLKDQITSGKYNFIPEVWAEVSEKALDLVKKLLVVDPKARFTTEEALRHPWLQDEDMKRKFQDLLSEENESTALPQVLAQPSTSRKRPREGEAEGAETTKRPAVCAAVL
T5 sequence (Q9HBH9 whole entry): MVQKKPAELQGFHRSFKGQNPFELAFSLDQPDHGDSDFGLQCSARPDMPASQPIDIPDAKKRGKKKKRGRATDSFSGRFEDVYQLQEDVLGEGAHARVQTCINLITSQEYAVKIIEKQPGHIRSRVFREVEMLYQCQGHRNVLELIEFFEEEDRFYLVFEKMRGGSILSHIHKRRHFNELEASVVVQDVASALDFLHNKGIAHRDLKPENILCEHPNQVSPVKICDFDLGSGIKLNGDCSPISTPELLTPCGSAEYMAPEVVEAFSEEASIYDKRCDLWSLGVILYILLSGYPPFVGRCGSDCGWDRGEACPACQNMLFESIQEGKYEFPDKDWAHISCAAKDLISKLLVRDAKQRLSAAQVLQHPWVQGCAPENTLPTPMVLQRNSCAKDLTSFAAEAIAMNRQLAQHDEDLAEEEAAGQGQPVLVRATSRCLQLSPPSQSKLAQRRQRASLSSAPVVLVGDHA
T3 sequence (Q16644 whole entry): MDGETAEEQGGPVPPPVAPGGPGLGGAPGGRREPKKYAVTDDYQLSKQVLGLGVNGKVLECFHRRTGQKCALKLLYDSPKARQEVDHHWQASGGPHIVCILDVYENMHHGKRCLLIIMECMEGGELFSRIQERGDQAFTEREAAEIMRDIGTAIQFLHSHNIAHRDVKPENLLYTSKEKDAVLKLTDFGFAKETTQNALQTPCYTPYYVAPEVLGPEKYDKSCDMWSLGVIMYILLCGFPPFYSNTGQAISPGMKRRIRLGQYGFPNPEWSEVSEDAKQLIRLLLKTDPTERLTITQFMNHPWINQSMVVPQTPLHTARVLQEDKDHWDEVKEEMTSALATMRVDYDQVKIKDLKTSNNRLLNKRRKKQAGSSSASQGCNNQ
ALK(h), sequence (Q9UM73 19-1620): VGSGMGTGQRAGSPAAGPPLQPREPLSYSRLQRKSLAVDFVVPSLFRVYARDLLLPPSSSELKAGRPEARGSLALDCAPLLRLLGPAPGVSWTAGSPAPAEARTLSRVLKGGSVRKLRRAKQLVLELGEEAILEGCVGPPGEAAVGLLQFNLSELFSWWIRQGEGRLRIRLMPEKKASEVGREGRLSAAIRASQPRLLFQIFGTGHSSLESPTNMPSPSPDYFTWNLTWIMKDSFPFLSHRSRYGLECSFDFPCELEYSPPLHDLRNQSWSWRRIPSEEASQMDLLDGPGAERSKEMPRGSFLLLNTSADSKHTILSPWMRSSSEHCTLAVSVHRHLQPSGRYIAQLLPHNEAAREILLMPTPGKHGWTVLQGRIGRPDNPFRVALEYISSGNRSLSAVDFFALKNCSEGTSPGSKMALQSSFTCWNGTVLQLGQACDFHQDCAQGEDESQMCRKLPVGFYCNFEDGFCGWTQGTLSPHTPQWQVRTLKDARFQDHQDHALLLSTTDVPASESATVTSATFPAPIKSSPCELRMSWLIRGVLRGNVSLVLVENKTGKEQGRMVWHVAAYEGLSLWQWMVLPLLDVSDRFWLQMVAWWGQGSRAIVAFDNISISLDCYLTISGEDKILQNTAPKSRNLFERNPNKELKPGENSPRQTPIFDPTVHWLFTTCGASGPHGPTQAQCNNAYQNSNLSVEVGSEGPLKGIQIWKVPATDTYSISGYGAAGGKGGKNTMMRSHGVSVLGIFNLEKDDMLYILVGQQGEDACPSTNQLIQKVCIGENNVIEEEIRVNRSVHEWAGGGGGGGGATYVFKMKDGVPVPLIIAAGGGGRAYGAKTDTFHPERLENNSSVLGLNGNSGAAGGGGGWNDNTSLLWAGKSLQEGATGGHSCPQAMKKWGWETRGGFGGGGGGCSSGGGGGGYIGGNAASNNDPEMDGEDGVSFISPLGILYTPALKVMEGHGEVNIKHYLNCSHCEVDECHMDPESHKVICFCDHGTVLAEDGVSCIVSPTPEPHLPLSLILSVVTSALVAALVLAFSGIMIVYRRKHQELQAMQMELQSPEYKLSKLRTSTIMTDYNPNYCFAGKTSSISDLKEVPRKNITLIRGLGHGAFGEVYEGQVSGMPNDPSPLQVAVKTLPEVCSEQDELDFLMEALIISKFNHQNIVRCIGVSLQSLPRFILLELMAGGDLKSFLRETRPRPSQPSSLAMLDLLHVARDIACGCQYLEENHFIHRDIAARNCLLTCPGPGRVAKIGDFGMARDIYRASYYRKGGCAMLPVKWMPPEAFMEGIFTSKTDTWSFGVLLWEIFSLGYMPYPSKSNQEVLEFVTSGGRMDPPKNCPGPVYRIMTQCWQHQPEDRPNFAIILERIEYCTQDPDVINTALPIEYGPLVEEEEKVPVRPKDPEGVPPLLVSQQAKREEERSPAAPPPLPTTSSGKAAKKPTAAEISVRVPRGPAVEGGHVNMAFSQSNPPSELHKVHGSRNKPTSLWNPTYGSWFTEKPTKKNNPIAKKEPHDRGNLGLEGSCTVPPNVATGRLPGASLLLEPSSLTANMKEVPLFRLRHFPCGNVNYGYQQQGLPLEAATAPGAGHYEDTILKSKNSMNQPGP
PKCβI(h), sequence (P05771 whole entry): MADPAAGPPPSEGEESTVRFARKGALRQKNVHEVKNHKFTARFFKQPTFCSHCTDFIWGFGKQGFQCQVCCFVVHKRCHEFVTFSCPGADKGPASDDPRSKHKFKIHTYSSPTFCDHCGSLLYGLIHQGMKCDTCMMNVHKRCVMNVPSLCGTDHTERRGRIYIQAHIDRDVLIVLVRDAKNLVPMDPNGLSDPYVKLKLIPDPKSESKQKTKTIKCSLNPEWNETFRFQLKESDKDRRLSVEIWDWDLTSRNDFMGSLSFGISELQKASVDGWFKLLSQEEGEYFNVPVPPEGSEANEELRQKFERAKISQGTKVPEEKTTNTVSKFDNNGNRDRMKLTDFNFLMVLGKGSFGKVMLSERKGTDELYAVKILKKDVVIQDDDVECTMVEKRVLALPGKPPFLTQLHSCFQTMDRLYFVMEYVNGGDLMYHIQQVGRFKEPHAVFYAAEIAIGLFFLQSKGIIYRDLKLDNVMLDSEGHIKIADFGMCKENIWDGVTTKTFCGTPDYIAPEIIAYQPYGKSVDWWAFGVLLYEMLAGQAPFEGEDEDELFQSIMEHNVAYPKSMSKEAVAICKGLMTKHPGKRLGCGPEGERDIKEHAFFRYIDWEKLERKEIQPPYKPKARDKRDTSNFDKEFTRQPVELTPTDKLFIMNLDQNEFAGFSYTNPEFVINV
CHK2(R145W)(h), sequence (O96017 whole entry R145W): as the sequence (O96017 whole entry I157T) above, with R145W, T157I counted along it

Sequence | % activity [1] [%] | % activity [2] [%] | % activity [3] [%] | % activity [4] [%] | % activity [5] [%] | % activity [6] [%] | % activity [7] [%] | % activity [8] [%] | % activity [9] [%] | % activity [10] [%] | % activity [11] [%] | % activity [12] [%] | % activity [13] [%] | % activity [14] [%] | % activity [15] [%] | % activity [16] [%] | % activity [17] [%] | % activity [18] [%]
FAKLAARLYRKALARQLGVAA [MMI-0300] | 135 | 52 | 21 | 3 | -2 | 78 | 29 | 79 | 89 | 33 | 37 | 19 | 31 | 23 | 43 | 98 | 89 | 
HRRIKAWLKKIKALARQLGVAA (Mammal) [MMI-0500] | 178 | 17 | -1 | 9 | 359 | 1 | 9 | 59 | 6 | 3 | 7 | 12 |  | 21 | 3 | 81 | 6 | 118
KAFAKLAARLYRKALARQLGVAA [MMI-0400] | 159 | 50 | 16 | 7 |  | 78 | 28 | 76 | 86 | 31 | 18 | 16 | 17 | 19 | 41 | 96 | 79 | 
YARAAARQARAKALARQLGVAA [MMI-0100] |  | 47 |  | 27 |  |  | 81 |  |  | 97 | 37 | 118 |  |  | 97 |  |  | 
YARAAARQARAKALNRQLGVA (Mammal) [MMI-0200] | 143 | 90 | 83 | 39 |  | 98 | 60 | 92 |  | 81 | 67 | 95 | 95 | 75 | 85 |  | 101 | 110

— patent US20150258192A1, “COMPOSITIONS AND METHODS FOR PREVENTING OR TREATING CHRONIC LUNG ALLOGRAFT DYSFUNCTION (CLAD) AND IDIOPATHIC PULMONARY FIBROSIS (IPF)” (priority 2014, published 2015)
